Data published in the domain aggregation screens of Martell et al. (2025).

Assay: soluble fraction after stress (log2 fold change); higher = more stays soluble; pooled small domains, quantitative proteomics
Conditions: stress: 50 degC
In short: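 After stress at 50°C, the amount of each protein still soluble was measured. This was done on pooled custom libraries of small protein domains, using high-throughput quantitative proteomics. The figure given is a base-two log fold change and stands for aggregation propensity, with higher values meaning more protein stays in solution.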

Sequence | soluble fraction (log2)
HMGAQKITIPDFSNQEATQVYAELKNMGLEYTESRMNHPSIASGYVIKTEPTKGSEVKAGTTVTVYVSLG | -0.0535
HMGARHPLPYPFARAHGLLLEADGERSTLWASTNVSPAALSEVMRKYAVDVIEEEPPETLSQRIAAAYAA | 0.0215
HMGASFITSSKDNAINIRESATTDSKVIETIKNGEILESTEKSGDWHKVTYYNSEIKKSFTGYIHNSQLK | 0.168
HMGASLVIVPGAGFLRVSASSQTRLDVYSITGMRVRSVDFEPGTTEIELPAGFYIAGGRKFFV | -1.4
HMGAYITYEVKPGDTLWDIANKFPGVSADNIKTWNKVDELIKAGERLKINTQTITDYSPDKYPS | -0.221
HMGDADDLSRELLQQGLSLKEAVADFERRYLQQAMQRHSSIASVSEALDVHFSTLWRKLVKYNLV | -0.047
HMGDADDLTRIKGIGPKLSKTLNELGIYHFRQIAGWQSDEADWVDDYLSFKGRVMREQWIEQAQKFAS | -0.392
HMGDAIPVPDVSGFSEDQAMNNLRKVGLRPKATYVADDNTAKGYVTGTSPAKNIEVAPDSEVIVYVSSGP | 0.238
HMGDAPLITVDKRTIKVNGAKAQIQVYDTTGRLVKNVSPAGKLTLIEMAKPGIFIVHTQSMSFKVVL | -0.448
HMGDAVYSKVKDLVNTYNALAKQTGKSDLVSISQSRTWMVNDTKAHEVQWNKIGITIEDDQTLTI | 0.179
HMGDLDLVTFGQRLRHLRRSRNMTLSELGERVGRAPSQLSLLENGKREPKLSLLTALAKALDVSVEEL | -0.75
HMGDLVKGKVVGYDPDNVIVDIGAKTNALVPNREAVVEAGDDIKETLKKGNEYEFLIIRDEDEEGEFL | 0.29
HMGDPEYFKKQLGDFMDRFNITSEDIKNLSIAGAINRMMNNAEGEDKTVLSKLLETVNKSGVGNLPAKTI | 0.0622
HMGDPVRVDKFLHDMNVGTRSQIRKLIKEKAVFVNDVVAKSGRVKVDPVVDQVRLGEQVITYQ | -0.115
HMGDPYAILGLLPGASMEDVRHAWRRQAAENHPDRMLQRGAPPEFVEIAREKTAAINAAYARIREELSI | -0.303
HMGDTIGEQKAKEIALEHAGLKSSDVTFIRAVLEYDDRNWEYDVEFYDADTYTEYDYEIDAHTGKILSFDH | 0.0993
HMGDTPVDFSEFIRWVDTGVVDRVELTGNEIVGTSSSGERFSTYAPPQYEGLGNKLIERDIVVVATAA | -0.164
HMGDTVSGTMLNLKPGVRVVHQIFGPGRVEETTGASLAEFRVTVRFEQKGLKTLLLQYAALQVINSEN | -0.795
HMGDVKLNAIYNFLKEFSALNGFPPSVREIGAKFGIKSTSTVHYYLEKLKQSGVIQQEENKKRAVVIN | -0.369
HMGDWEDFWEKEARRRKLSLDYQVVRSLSRWSREYDWGEEDVEQFLSQFPEGETVKMEDVELYFE | -1.12
HMGDYDHYVVKVEDTLLNWLVTNVTTMSRNKLKDILAGQGIKVNGKITTKYDYPLTPGMKIAISKTKR | -0.275
HMGEAIPVPDIRHKSQADAERLLQDQGLAMMVTDTGYVKTLPANYILEQIPVAGEKVKSGHVVYVIINSG | 0.0717
HMGEGIRIDSTAVVQVGEKMYAYLGGDGFSKEFWTNLPASGELAVTLKFEPIPMDAESLDFYEMPA | 0.0315
HMGEILYSGVLKGGDGPEATKLALEKFLGEANTQVAGRIGVQPETQVIWLSREAVDSAASTLSQHKGNMYV | -0.085
HMGELDFYEEMRDDYLTGKIWNVGEIVEAKGMIGEIVRKGTNYISFVTDDNKVHKAWLHEIKL | -0.634

Sequence | soluble fraction (log2)
HMGELRAPLPGVIVSIPVKEGDEVKAGQAILIIEAMKMESEISSPIDAKVAKIVVKERVLVQEGDILIILE | -0.702
HMGEMTDFETLRDMYLTGQIWNIDDLIEANGVEGRIVRRGTNYIAFNDRDGKVHKAWLHEVTINE | -0.836
HMGENTIFSGVLGEGRLDSALAHALPQFSRARIQGLIAEDAVLIAGKATNDAASKKFAGQSFELSVPAPRP | 0.105
HMGEPQAWNELIGNLLRQWEARQTGWTPARKREALDRVLGAADPAALYTRLQGLLKSWTQAMTDADA | -1.7
HMGEQETILKGDVNRDGVVDVNDVTHLQIHISNDDKNPLIDVTNKAWFDAADMYGDGKLDILDATALQIYI | 0.11
HMGERVDGVVKFFNGQKGFGFIQREDGGPDAFVHISAVERAGMAGLDEGQRVSFELELDRRGKQAAINLTP | 0.00122
HMGESYGPVRRGETLWSIAEKVKPAGVSTQKELAAIYAANPQAFIRGDINLLKAGAELRLPSPEAL | 0.172
HMGESYQIKDGELLVDIAQRVKPAGMTLRQTINALVAANPRAFRNGNPDLMYRGATLTIPDGDTLRRLAH | 0.131
HMGEVQALIPGLVSKLFVVEGESVKIGQKLIILEAMKMENEIASPINGTIKKIYIKSGDKIDKGSIIMEIT | -0.336
HMGEVVSAPMPGTILSIKVSQGQTVKRGQVLLILEAMKMENEIVAPRDGVVVQISTTQGASVETGAPLVVL | -0.0677
HMGEVYPSDIVEKMKQANLHILEGTLYPLLTRLKNAGLLNYRWVESVTGPPRKYFVMTEEGKAAF | 0.0419
HMGEWHQMLRSWGETELKNGRQNILDEAVPAFERAMIETALAHTSGRKKDAALLLGWGRNTLTRKLQEHSI | -0.0702
HMGEYGVLWYLLTKKEAVSAGELKEKLHVVPGRMTDILTALEKKGLIIRQKNKTDKRVVDVVLTKEGEKEA | -0.471
HMGFAEFWLAYPKKVGKGEAERKWKTLKPDAGAVLSAVKRQSASEQWRKDGGRYIPNPATWLHQRRWE | -0.0238
HMGFALLIAIERTGNTTYFVKLTLIKKGSDSDVLKDSFSVSQGDLVGTATYDSVIANRIREKTAAMWQKAT | -2.13
HMGFDTSMNKYTIDDLLKLLELGSNPSQAEIVNKITNFNTIFVDNSGVIQFLNNIQDKLLDNFK | -0.396
HMGFDTVVEKVLGLITSRPMTSRDIQMTLGRSREHTSRLMNRLYKEGLVDRNTSSKPFSYIITEKGREKI | -0.0114
HMGFPAPFDGKAVAELRRRLGLTRRGLAEELSVSPSTVDKWEQGDVALRSPALTILKILWHQGLKALPP | -1.52
HMGFSDDEHNALADADLKKALEVTTNKSETQYNIAKLIYSYIISLGDKKPYGDWSYDKALSIIHDA | 0.0519
HMGGAVQIAEQIAARIKDGALRPGELLPPVRQLAAELEVNPNTVASAYARLRDAGLVATRGRAGTVVLEPP | -0.172
HMGGAYATVKLSSSSSQLNVRASASTASRVVARLSHGFRVEVLGVSGDWVKIRALGVEGYVARAYLALEGE | -0.374
HMGGEAEVLQSIDEGREVEVRSVAADGSAEVIYRGARWRARAAVGSLAAGRWTIGRVDGTELVLEK | -0.0207
HMGGEEKALLFGDVDIREAGEITQRLEQAEIPYELRGDGSSIFVPRSRVMEARMMISADGLL | -0.0992
HMGGEKLPAPVAGTLLRYSVAEGARVSEGQTVIILESMKMELEINTPKAGVIHFLAAVGAQVAEGDTLAEI | -1.82
HMGGGTPEERLATLAAIAERQEMLLERLGPNNPLVSLGQYSRTLSRMVQLAGFKDASQYFNELPLDFQMPE | -0.212

Sequence | soluble fraction (log2)
HMGGHLAYGFSRRFGLLIDEQQGEPVIIARPDYSPVHYAEARRIVGQPAALRVVDEQAFNQLLQSQQESGA | -0.346
HMGGLENNLKQARNRVGLTQSELARQAGISRQAYSSLESGAANPSTEVALRLAQALSERVESLFYLPE | -0.0819
HMGGNVYAYRLTASVKSGEQIPANKIEKVKMLSSDLPTNYVPDTVNVTAYKSKLDLQAGTILSTSLLYEN | 0.0242
HMGGPTARQMEVLSLIAQGLPNKRIADELGIAERTVKLHITALLDSLGARNRTHLLVVARERGM | -2.21
HMGGQKTREAIFDLIMTNSKITSAQIAEILGIHRSGVARHLKKLQEEGLIKREGPDNGGQWIVIK | -0.422
HMGGQYQVRPGETLNQIAARVRPSNMSLSETQKAIIQANPDIFKNGNPNLIFAGDILRIPTGNQI | 0.211
HMGGTTLIAKQATVTGDIQFSSNLDIEGRVVGAISVEPGKEAMLHVVEGGSVEGEIRVPSAVINGKVTGDI | 0.101
HMGGVEWLTHPIGPRDSLQVLARAGLEARPTSDGDYEIYGQERWPQRDQARLMGWLRRFGQWVWQALYDK | -0.378
HMGHEALSSKLDEIQGVGKEKRSLLLDHFKTFERIKNASMEELEAVPSLGKNTAKAVFRFFHS | 0.07
HMGHLTWTVTGIGHERRARTVAEQMSSVFGVLEARASSAGTVYLEFEREKIDEGGLEASLKRMGVTRVV | -1.71
HMGIAFDYDAGRFDQVPPNLVEKWQQAYPAVDVLSELRRMEAWASANPVNRKSNWQRFIVNWLTRAQDRAG | -0.215
HMGIAKYRQVTEWIQNRIATGELNRGDQIESENDISRTFGISRQTVRHALGLLEQQGILTRIQGRGTFVRD | -0.661
HMGIFDIIQEINRQGVTVLLIEQNANMALKIADVGYVLETGRISLTGSGRELLANEAVKKAYL | -0.0514
HMGIKYTNQRVEILNFLKDNLSHPTVDDVYEGVKKKLTRISKATVYQNLKFLASKGLIQEVNIKGVSRFEP | -1.32
HMGIRQGKVTSTFVNVRSGASTANAKVGELHKGDVVSLIEKVANFWRIGPGQFVSADYIQVLAS | -0.508
HMGIRYQLADDVTDEQITAMTGKKAKIAAAIKAAGSAVSKMNVAGEMGYDKQNPINKDFMELVDAGIIVPS | 0.00228
HMGISEKVINIIETYTMIARKKYPSVKSLAEHFNVSERTVHRYLEIIKMIDVVDYDREKKGYFFPYGDR | -1.11
HMGISSESIKTFIREIVENEDPKAPLSDQTMVELLAERGIDISRRTVAKYRDEMNLPSSSKRKR | 0.462
HMGKAMIDWEREQSILRILLRQKALTTEQAREVYQDGMREDLSALEMGVQRGYFTHEQLREATGGE | 0.0179
HMGKASNEVYEVISSKIRTGEWAPGYKLPSEPTLAEEFGVSRATVREALQELISRGRIKREQGRGTYVLH | 0.161
HMGKAVTLEEARAIIQAKVPGASPDMIQIWEEHGDGRGRYEGELSYNNMKYEFEMDPKTGIIFDWNA | -0.224
HMGKEDISQINKLYQNQILDYETYIDTLNSFNIDTKSKDFKNLLDLFIKKSISFETFNKGIINIHNKS | 0.11
HMGKFMVQVGAFSRINGAEITRTKYDNLGTHKAIIKNLDGMNRVFLTGFLSEDEARDFIASSNLKGAFIIR | -1.66
HMGKGVDKIMKMADDYSYGKIAGKTVDVMTAKLFQAAYNKAPQKAKDKVDKMNEKQLYIFMMNLWKRF | -0.777
HMGKIILLFSDDDGVFDTALYRVRNYDGHRFAQSLGNAEMKWRHSEDEYFDFVLTSLREDGYDIEEIE | -1.22
